Starred links: 1 amine or outer side, 2 acyl side, 3 side chain; linkers in the order of their positions; H or OH if unused. No end group written: not given here. Glutaryl = O=C(CCCC(=O)[*:2])[*:1]
B1: H3K9glu (peptide)
chain: KQTARK(Glutaryl)STGGKA
B2: H3K9mal (peptide)
chain: ARTKQTARKSTGGKA
modifications: malonyl-lysine (Kmal) at Lys9
B3: histone H3 peptide carrying an HMG mark at Lys9 (peptide)
chain: KQTARK(HMG)STGGKA

Target: T1, human Sirt5 (human, UniProt Q9NXA8 37-310)
T1 construct: Sirt5 (sirtuin 5), human; the ESI (experimental methods) may tell them; also called sirtuin 5
T1 sequence (looked up): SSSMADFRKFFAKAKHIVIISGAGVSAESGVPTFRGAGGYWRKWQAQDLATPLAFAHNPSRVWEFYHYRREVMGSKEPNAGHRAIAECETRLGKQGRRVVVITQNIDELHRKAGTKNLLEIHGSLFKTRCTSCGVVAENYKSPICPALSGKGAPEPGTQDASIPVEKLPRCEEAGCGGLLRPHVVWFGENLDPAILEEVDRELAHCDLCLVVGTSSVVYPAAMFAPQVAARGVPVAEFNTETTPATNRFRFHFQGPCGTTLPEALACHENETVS
Assay: ITC; isothermal titration calorimetry of Sirt5 with H3K9 acyl peptides; which partner was titrated and the conditions are not told in the text shown
Settings: both partners purified

**Q.** B1 was tested. Which Kd did it give?
**A.** The Kd was 12.6 µM.

**Q.** For B2, which Kd is on record?
**A.** Its Kd is 35 µM.

**Q.** B3 was tested. Which Kd did it give?
**A.** The Kd was 61.7 µM.

Source: paper PMC6194501, “A chemical reporter facilitates the detection and identification of lysine HMGylation on histones† †Electronic supplementary information (ESI) available: Experimental methods and figures. See DOI: 10.1039/c8sc02483a” (Chemical Science, 2018)
